In US11994512B2, “Single-cell genomic methods to generate ex vivo cell systems that recapitulate in vivo biology with improved fidelity” (Massachusetts Institute of Technology, priority 2018, dated 2024):

B1: O88554 (protein, UniProt O88554 1-559, looked up)
chain: MAPRRQRSGSGRRVLNEAKKVDNGNKATEDDSPPGKKMRTCQRKGPMAGGKDADRTKDNRDSVKTLLLKGKAPVDPECAAKLGKAHVYCEGDDVYDVMLNQTNLQFNNNKYYLIQLLEDDAQRNFSVWMRWGRVGKTGQHSLVTCSGDLNKAKEIFQKKFLDKTKNNWEDRENFEKVPGKYDMLQMDYAASTQDESKTKEEETLKPESQLDLRVQELLKLICNVQTMEEMMIEMKYDTKRAPLGKLTVAQIKAGYQSLKKIEDCIRAGQHGRALVEACNEFYTRIPHDFGLSIPPVIRTEKELSDKVKLLEALGDIEIALKLVKSERQGLEHPLDQHYRNLHCALRPLDHESNEFKVISQYLQSTHAPTHKDYTMTLLDVFEVEKEGEKEAFREDLPNRMLLWHGSRLSNWVGILSHGLRVAPPEAPITGYMFGKGIYFADMSSKSANYCFASRLKNTGLLLLSEVALGQCNELLEANPKAQGLLRGKHSTKGMGKMAPSPAHFITLNGSTVPLGPASDTGILNPEGYTLNYNEFIVYSPNQVRMRYLLKIQFNFLQLW
modifications: full-length
B2: O35945 (protein, UniProt O35945 1-501, looked up)
chain: MSSPAQPAVPAPLANLKIQHTKIFINNEWHDSVSSKKFPVLNPATEEVICHVEEGDKADVDKAVKAARQAFQIGSPWRTMDASERGRLLNKLADLMERDRLLLATMESMNAGKVFAHAYLLDVEISIKALQYFAGWADKIHGQTIPSDGNIFTYTRREPIGVCGQIIPWNGPLIIFTWKLGPALSCGNTVVVKPAEQTPLTALHMASLIKEAGFPPGVVNIVPGYGPTAGGAISSHMDIDKVSFTGSTEVGKLIKEAAGKSNLKRVTLELGGKSPCIVFADADLDSAVEFAHQGVFFHQGQICVAASRLFVEESIYDEFVRRSVERAKKYILGNPLNSGINQGPQIDKEQHNKILGLIESGKKEGAKLECGGGRWGNKGFFVQPTVFSNVTDEMRIAKEEIFGPVQQIMKFKSMDDVIKRANNTTYGLAAGVFTKDLDKAITVSSALQAGMVWVNCYLAVPVQCPFGGFKMSGNGRELGEHGLYEYTELKTVAMQISQKNS
modifications: full-length
B3: O70126 (protein, UniProt O70126 1-345, looked up)
chain: MAQKENAYPWPYGSKTSQSGLNTLSQRVLRKEPATTSALALVNRFNSQSTAAPGQKLAENKSQGSTASQGSQNKQPFTIDNFEIGRPLGKGKFGNVYLAREKKSRFIVALKILFKSQIEKEGVEHQLRREIEIQAHLKHPNILQLYNYFYDQQRIYLILEYAPRGELYKELQKSRTFDEQRTATIMEELSDALTYCHKKKVIHRDIKPENLLLGLQGELKIADFGWSVHAPSLRRKTMCGTLDYLPPEMIEGRMHNEMVDLWCIGVLCYELMVGNPPFESPSHSETYRRIVKVDLKFPSSVPSGAQDLISKLLKHNPWQRLPLAEVAAHPWVRANSRRVLPPSAL
modifications: full-length
B4: O35594 (protein, UniProt O35594 1-676, looked up)
chain: MSDQIKFIVDSLNKEPFKKNYNLITFDSLGPMQLLQVLNDVLAEIDPKQDVDIREEMPEQTAKRMLNLLGILKYKPPGNATDMSTFRQGLVIGSKPVIYPVLHWLLQRSNELKKRAYLARFLIKLEVPSEFLQDETVADTNKQYEELMEAFKTLHKECEQLKTSGFSTAEIRRDISAMEEEKDQLMKRVERLKKRVETVQNHQRMLKIARQLRVEKEREEFLAQQKQEQKNQLFHAVQRLQRVQNQLKSMRHAAADAKPESLMKRLEEEIKFNSYMVTEKFPKELESKKKELHFLQKVVSEPAMGHSDLLELETKVNEVNTEINQLIEKKMMRNEPIEGKLSLYRQQASIISRKKEAKAEELQETKEKLASLEREVLVKTNQTREFDGTEVLKGDEFKRYVSKLRSKSTVFKKKHQIIAEFKAEFGLLQRTEELLKQRQETIQHQLRTIEEKKGISGYSYTQEELERVSALKSEVDEMKGRTLDDMSEMVKKLNSLVSEKKSALAPVIKELRQLRQKCQELTQECDEKKAQYDSCAAGLESNRSKLEQEVRGLREECLQEESKYHYTNCMIKNLEVELRRATDEMKAYVSSDQQEKRKAIREQYTKNITEQENLGKKLREKQKAVRESHGPNMKQAKMWRDLEQLMECKKQCFLKQQSPASIGQVIQEGGEDRLVL
modifications: full-length
B5: O88451 (protein, UniProt O88451 1-316, looked up)
chain: MWLYLVALVGLWTLLRFFRERQVVSHLQDKYVFITGCDSGFGNLLARQLDRRGMRVLAACLTEKGAEQLRNKTSDRLETVILDVTKTESIVAATQWVKERVGNRGLWGLVNNAGICVFAINEWLKKEDFANILDVNLLGMIEVTLSMLPLVRKARGRVVNISSSMGRVSLCGGGYCISKYGVEAFSDSLRREISYFGVKVAIIEPGGFRTNVSNYERLSHSIEKLWDQTSSEVKEVYDKNFLDSYIKAIQSLTDTCSDDLSVVTDCMEHALTACHPRTRYSAGWDAKLFYLPLSYMPTFLVDAMLYWSSVKPAQAL
modifications: full-length
B6: O35943 (protein, UniProt O35943 1-207, looked up)
chain: MWAFGGRAAVGLLPRTASRASAWVGNPRWREPIVTCGRRGLHVTVNAGATRHAHLNLHYLQILNIKKQSVCVVHLRNLGTLDNPSSLDETAYERLAEETLDSLAEFFEDLADKPYTLEDYDVSFGDGVLTIKLGGDLGTYVINKQTPNKQIWLSSPSSGPKRYDWTGKNWVYSHDGVSLHELLARELTKALNTKLDLSSLAYSGKGT
modifications: full-length
B7: O88310 (protein, UniProt O88310 1-313, looked up)
chain: MTQLGFLLFIMVATRGCSAAEENLDTNRWGNSFFSSLPRSCKEIKQEHTKAQDGLYFLRTKNGVIYQTFCDMTTAGGGWTLVASVHENNMRGKCTVGDRWSSQQGNRADYPEGDGNWANYNTFGSAEAATSDDYKNPGYFDIQAENLGIWHVPNKSPLHNWRKSSLLRYRTFTGFLQHLGHNLFGLYKKYPVKYGEGKCWTDNGPALPVVYDFGDARKTASYYSPSGQREFTAGYVQFRVFNNERAASALCAGVRVTGCNTEHHCIGGGGFFPEGNPVQCGDFASFDWDGYGTHNGYSSSRKITEAAVLLFYR
modifications: full-length
B8: O88513 (protein, UniProt O88513 1-206, looked up)
chain: MNLSMKQKQEGAQENVKNSPVPRRTLKMIQPSADGSLVGRENELPKGLFKRKLWDDQLASQTSSCGPEANENKDVGDLTQEAFDLISKENPSSQYWKEVAEQRRKALYEALKENEKLHKEIEQKDSEIARLRKENKDLAEVAEHVQYMAEVIERLSNEPLDNFESPDSQEFDSEEEAVEYSELEDSGAGTCAEETVSSSTDARPCT
modifications: full-length

System: intracellular proteome of ENR+CD and ENR organoids
Test: LC-MS/MS TMT proteomics of ENR+CD versus ENR organoids
Assay type: cell-based, C57BL/6 mice
Details: for Average logFC / M1-1 Log2 Median Normalized / M1-2 Log2 Median Normalized / M2-1 Log2 Median Normalized / M2-2 Log2 Median Normalized: protein abundance, ENR+CD versus ENR organoids; for Average logFC: aggregate of the four sample pairs; for M1-1 Log2 Median Normalized: replicate M1-1; for M1-1 Log2 Median Normalized / M1-2 Log2 Median Normalized / M2-1 Log2 Median Normalized / M2-2 Log2 Median Normalized: log2 ratio; for M1-2 Log2 Median Normalized: replicate M1-2; for M2-1 Log2 Median Normalized: replicate M2-1; for M2-2 Log2 Median Normalized: replicate M2-2; for change: up = enriched in ENR+CD, down = enriched in ENR, FDR<0.05 and log fold change cut-off
Source text: Because PCs are highly secretory, protein-rich cells, Applicants sought to assess the total intracellular proteome between conditions through liquid chromatography mass spectrometry (LC-MS/MS)-based proteomics. Applicants quantified relative protein abundance across eight samples using isobaric mass tag labeling from four ENR and four ENR+CD samples (M1-1 through M2-2, first digit denotes biological donor, second digit denotes technical replicate) (FIG. 3A). Samples were processed and analyzed in a single 10-plex by LC-MS/MS (FIG. 9A).
To affirm the reproducibility of the associated proteins in the ENR+CD-enriched proteome, Applicants performed relative quantification within differentiation sets.
Mass spectrometry proteomics sample preparation, sequencing, and quantification. Organoid cell pellets were isolated from Matrigel with mechanical dissociation and washed (cold PBS 5X) to remove residual extracellular protein. Proteins were extracted from cell pellets with 8 M urea (Sigma), reduced with 5 mM DTT (Thermo Fisher Pierce) for 45 minutes, alkylated with 10 mM IAA (Sigma) for 45 minutes in the dark, and double digested with both Lysyl Endopeptidase “LysC” (Wako) and trypsin (Promega) overnight at RT. A small aliquot of cellular lysate was removed from each sample for protein quantification via the Pierce™ BCA Protein Assay Kit (Pierce). After proteolytic digestion, the samples were quenched using formic acid to a final concentration of 1.0% and subsequently desalted on 10 mg OASIS HLB solid phase columns (Waters).
The peptides were labeled with TMT-10 isobaric mass tag reagent according to manufacturer's instructions (ThermoFisher Scientific). The peptides were labeled at a 1:8 ratio of peptide to TMT reagent, followed by 1-hour incubation at RT with bench top shaking at 850 rpm. After incubation, a […] of labeled tryptic peptide was removed from each labeled condition, desalted with C18 stage tips, and analyzed via LC-MS/MS using a Thermo Fisher Q Exactive Plus Hybrid Mass Spectrometer (QE-Plus) coupled to a Thermo Fisher EASY-nLC 1000 liquid chromatograph to ensure isobaric label incorporation >95%. An additional 1.0 μg of labeled tryptic peptide was removed from each channel, mixed together, desalted on a C18 stage tip, and analyzed via LC-MS to ensure equal relative protein loads. During these quality control steps, the labeled peptides were stored, unquenched at −80° C.

| Molecule | Average logFC | M1-1 Log2 Median Normalized | M1-2 Log2 Median Normalized | M2-1 Log2 Median Normalized | M2-2 Log2 Median Normalized | change |
| --- | --- | --- | --- | --- | --- | --- |
| B1 | −1.403 | −1.403 | −0.933 | −1.4925 | −1.465 | down |
| B2 | −1.329 | −1.241 | −1.721 | −1.8345 | −0.518 | down |
| B3 | −1.165 | −1.572 | −0.967 | −0.8395 | −1.281 | down |
| B4 | 1.151 | 0.817 | 1.152 | 1.1275 | 1.543 | up |
| B5 | −1.416 | −1.202 | −1.565 | −2.2355 | −0.662 | down |
| B6 | −1.193 | −0.813 | −0.849 | −1.3945 | −1.715 | down |
| B7 | 1.203 | 1.445 | 1.239 | 0.9545 | 1.175 | up |
| B8 | −1.337 | −1.6 | −1.306 | −0.8435 | −1.599 | down |
